Measured values: patent US6214588

Test system: GAL4(1-147)-VP16 (Saccharomyces cerevisiae / herpes simplex virus?)
Conditions: in vitro transcription stimulation with purified holoenzyme, factor a, TBP; 10-fold in nuclear extract

pGAL4CG- (+GAL4 site template)
activity: 5 fold
